For two molecules, binding result and Kd results are on record in PMC13267735, “Structural basis of liver de-targeting and neuronal tropism of CNS-targeted AAV capsids” (Molecular therapy : the journal of the American Society of …, 2026).

What all share (details): both partners purified
The target of experiment [1] is T1, AAV-PHP.eB capsid (adeno-associated virus serotype 9 (AAV9), UniProt Q6JC40 1-736, 587-588 AQ to DGTLAVPFK).
T1 construct: AAV9 capsid protein VP1 with the PHP.eB VR-VIII 7-mer insertion TLAVPFK between residues 588 and 589 and two flanking point mutations (587-588 AQ to DG); capsid holds VP1, VP2 and VP3; Whole virus capsid packaging an eGFP genome; VP1/VP2/VP3 assembly; source: HEK293T, triple-transfected (pHelper, capsid and genome plasmids), purified (iodixanol gradient)
The experiment is described as follows: pull-down; 6xHis-tagged bait (AAVR-PKD2 100-200 pmol or His-Fc-LY6A 30-60 pmol) on Ni-NTA resin, prey AAVs (0.05 pmol); DPBS with 20 mM imidazole, 1 hr at 4 C; eluted with 150 mM imidazole; western blot with anti-VP1/VP2/VP3 and anti-6xHis.

Experiment [2] concerns the target T2, AAV.CAP-B10 capsid (adeno-associated virus serotype 9 (AAV9), UniProt Q6JC40 1-736, 452NGSGQNQ458 to 452DGAATKN458 | 587-588 AQ to DGTLAVPFK).
T2 construct: capsid holds VP1, VP2 and VP3; Whole virus capsid packaging an eGFP genome; VP1/VP2/VP3 assembly; source: HEK293T, triple-transfected (pHelper, capsid and genome plasmids), purified (iodixanol gradient)
The description is as above.

The target of experiment [3] is T3, eB.24 capsid (adeno-associated virus serotype 9 (AAV9), UniProt Q6JC40 1-736, S454A | Q456T | 587-588 AQ to DGTLAVPFK).
T3 construct: capsid holds VP1, VP2 and VP3; Whole virus capsid packaging an eGFP genome; VP1/VP2/VP3 assembly; also called PHP.eB.24; source: HEK293T, triple-transfected (pHelper, capsid and genome plasmids), purified (iodixanol gradient)
The description is as above.

The target in a further experiment is T4, AAV9 (wild-type) capsid (adeno-associated virus serotype 9 (AAV9), UniProt Q6JC40 1-736).
T4 construct: AAV9 capsid protein VP1; VR-IV 452-458 NGSGQNQ, VR-VIII 587-590 AQAQ; Whole virus capsid packaging an eGFP genome; also called wild-type AAV9; source: HEK293T, triple-transfected (pHelper, capsid and genome plasmids), purified (iodixanol gradient)
The experiment is described as follows: BLI; BLItz; biotin-conjugated CaptureSelect AAV9 nanobody on streptavidin biosensor, AAV (5x10^12 vg/ml) loaded as biolayer, MBP-tagged PKD2 as analyte at 1.25-80 uM, 120 s association and 120 s dissociation; DPBS, 1% BSA, 0.02% Tween-20; Kd averaged from 3 experiments.

The target in experiment [4] is T1, AAV-PHP.eB capsid. The description is as above.
Experiment [5] deals with T2, AAV.CAP-B10 capsid. The experiment is described as above.
In experiment [6] the target is T3, eB.24 capsid. The experiment is described as above.
The target in the next experiment is T5, AAV9-B10 capsid (adeno-associated virus serotype 9 (AAV9), UniProt Q6JC40 1-736, 452NGSGQNQ458 to 452DGAATKN458).
T5 construct: AAV9 capsid protein VP1 with the CAP-B10 7-mer in VR-IV (452-458 DGAATKN) and unaltered AAV9 VR-VIII; capsid holds VP1, VP2 and VP3; Whole virus capsid packaging an eGFP genome; VP1/VP2/VP3 assembly; source: HEK293T, triple-transfected (pHelper, capsid and genome plasmids), purified (iodixanol gradient)
Described as above.

In another experiment the target is T6, AAV9-X1 capsid (adeno-associated virus serotype 9 (AAV9), UniProt Q6JC40 1-736, GNNTRSV inserted between 588 and 589).
T6 construct: capsid holds VP1, VP2 and VP3; Whole virus capsid packaging an eGFP genome; VP1/VP2/VP3 assembly; source: HEK293T, triple-transfected (pHelper, capsid and genome plasmids), purified (iodixanol gradient)
The description is as above.

Another experiment concerns the target T7, AAV9-X1.1 capsid (adeno-associated virus serotype 9 (AAV9), UniProt Q6JC40 1-736, 452NGSGQNQ458 to 452DGAATKN458 | GNNTRSV inserted between 588 and 589).
T7 construct: AAV9 capsid protein VP1 with the AAV9-X1 VR-VIII 7-mer insertion GNNTRSV between residues 588 and 589 and the CAP-B10 7-mer in VR-IV (452-458 DGAATKN); capsid holds VP1, VP2 and VP3; Whole virus capsid packaging an eGFP genome (SCP1 promoter); VP1/VP2/VP3 assembly; source: HEK293T, triple-transfected (pHelper, capsid and genome plasmids), purified (iodixanol gradient)
The experiment is described as above.

B1: LY6A (AA 1-109) derived from C57BL/6 mice with Fc (human IgG1), Myc and 6xHis tags (Fc fusion, mouse (C57BL/6), UniProt P05533 27-109, looked up)
chain: LECYQCYGVPFETSCPSITCPYPDGVCVTQEAAVIVDSQTRKVKNNLCLPICPPNIESMEILGTKVNVKTSCCQEDLCNVAVP
notes: signal peptide in the construct; LY6A, C57BL/6 mouse, AA 1-109; also called His-Fc-LY6A; source: HEK293T, transiently transfected, secreted into conditioned media, purified (Ni-NTA)
In the case of B1, the binding result in the experiment with AAV-PHP.eB capsid [1], with AAV.CAP-B10 capsid [2] and in the experiment with eB.24 capsid [3] was “binds” each time.

B2: PKD2 domain of AAVR (AA 401-498) fused to maltose binding protein and 6xHis (domain or fragment)
chain: EPRKNRPPIAIVSPQFQEISLPTTSTVIDGSQSTDDDKIVQYHWEELKGPLREEKISEDTAILKLSKLVPGNYTFSLTVVDSDGATNSTTANLTVNKA
notes: AAV receptor (AAVR), polycystic kidney disease domain 2 (PKD2), AA 401-498; Construct for biolayer interferometry; monomer fraction from SEC was used; also called AAVR-PKD2; MBP-tagged AAVR-PKD2; source: E. coli BL21 (DE3)-RIPL, purified (amylose resin, Superdex 200 SEC)
On to B2, for which the Kd came out at 11 µM with AAV9 (wild-type) capsid; 14 µM in the experiment with AAV-PHP.eB capsid [4]; 61 µM with AAV.CAP-B10 capsid [5]; 24 µM in the experiment with eB.24 capsid [6]; 47 µM with AAV9-B10 capsid; 6 µM with AAV9-X1 capsid. The affinity with AAV9-X1.1 capsid, expressed as Kd, was 19 µM.
